In the experiment the target is HIV envelope protein on HIV-infected cells (HIV). Description: cell-based or functional assay.

Substance “anti-HIV chimeric antigen receptor comprising scFv derived from PGT128 (PGT128 CAR)” showed an HIV-infected cells killed at 48 hours, against CARCD19 T-cells of 56%.

The values are drawn from US20170044240A1.
